The values below come from patent US20110239316A1 (PIERRE FABRE MEDICAMENT, published 2011).

Positions count from the first letter of the chain named.

The target of one assay is human c-Met receptor (human, UniProt P08581 25-1390). Nature of the assay: cell-based or functional assay.
In another assay the target is C-Met-Rluc (R. reniformis, UniProt P08581 25-1390). The experiment in a line: cell-based or functional assay.
Sequence of C-Met-Rluc (P08581 25-1390): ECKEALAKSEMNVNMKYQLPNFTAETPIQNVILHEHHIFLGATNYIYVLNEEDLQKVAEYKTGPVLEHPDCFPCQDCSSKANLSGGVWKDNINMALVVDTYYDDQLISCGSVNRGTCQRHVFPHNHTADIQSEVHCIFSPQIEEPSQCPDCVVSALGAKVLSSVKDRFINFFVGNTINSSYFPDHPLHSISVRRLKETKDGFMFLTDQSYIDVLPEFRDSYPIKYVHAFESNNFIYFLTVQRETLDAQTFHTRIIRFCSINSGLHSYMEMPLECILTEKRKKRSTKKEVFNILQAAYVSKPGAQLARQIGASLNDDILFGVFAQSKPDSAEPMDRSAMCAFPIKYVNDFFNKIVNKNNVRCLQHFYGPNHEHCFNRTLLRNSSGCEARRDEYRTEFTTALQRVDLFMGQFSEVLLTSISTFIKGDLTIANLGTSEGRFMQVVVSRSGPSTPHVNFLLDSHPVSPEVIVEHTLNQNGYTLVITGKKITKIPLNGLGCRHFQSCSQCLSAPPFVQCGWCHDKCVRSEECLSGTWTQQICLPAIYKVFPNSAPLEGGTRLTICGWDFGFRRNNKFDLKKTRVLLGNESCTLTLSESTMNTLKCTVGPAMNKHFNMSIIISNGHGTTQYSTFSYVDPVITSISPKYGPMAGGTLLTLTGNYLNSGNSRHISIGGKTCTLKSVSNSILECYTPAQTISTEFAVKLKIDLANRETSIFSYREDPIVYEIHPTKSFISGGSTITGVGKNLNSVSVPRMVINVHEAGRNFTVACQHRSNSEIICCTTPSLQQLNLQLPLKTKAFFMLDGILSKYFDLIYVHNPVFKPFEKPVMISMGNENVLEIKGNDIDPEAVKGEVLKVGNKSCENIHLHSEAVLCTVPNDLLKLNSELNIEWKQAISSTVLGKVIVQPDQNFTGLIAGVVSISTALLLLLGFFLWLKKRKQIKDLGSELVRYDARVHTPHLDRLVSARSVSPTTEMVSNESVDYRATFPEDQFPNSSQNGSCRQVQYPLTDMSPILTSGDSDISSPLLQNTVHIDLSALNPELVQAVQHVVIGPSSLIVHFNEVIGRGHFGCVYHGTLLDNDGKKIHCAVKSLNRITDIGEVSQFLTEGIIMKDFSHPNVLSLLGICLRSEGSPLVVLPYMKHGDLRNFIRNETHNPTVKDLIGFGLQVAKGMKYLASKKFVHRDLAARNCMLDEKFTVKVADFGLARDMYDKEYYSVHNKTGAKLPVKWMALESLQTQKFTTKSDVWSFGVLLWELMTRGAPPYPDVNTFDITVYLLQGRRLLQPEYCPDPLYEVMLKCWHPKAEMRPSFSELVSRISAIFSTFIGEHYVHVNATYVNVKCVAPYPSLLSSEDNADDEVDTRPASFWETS

Sequence of human c-Met receptor (P08581 25-1390): as above

B1: [224G11] [Hz1] (antibody, V domains shown)
VH: QVQLVQSGAEVKKPGASVKVSCKASGYIFTAYTMHWVRQAPGQGLEWMGWIKPNNGLANYAQKFQGRVTMTRDTSISTAYMELSRLRSDDTAVYYCARSEITTEFDYWGQGTLVTVSS
VL: DIVLTQSPDSLAVSLGERATINCKSSESVDSYANSFMHWYQQKPGQPPKLLIYRASTRESGVPDRFSGSGSRTDFTLTISSLQAEDVAVYYCQQSKEDPLTFGGGTKVEIKR
Turning to B1, the “inhibition of HGF-induced proliferation of NCI-H441 cells ([3H]thymidine), FIG. 14A” value (“inhibition … FIG. 14A” for short) with human c-Met receptor is around 46%.

B2: [224G11] [TH7 Hz1] (antibody, human IgG1, V domains shown)
VH: B1 VH
VL: B1 VL
For B2, the “inhibition of HGF-induced proliferation of NCI-H441 cells ([3H]thymidine), FIG. 15” value (“inhibition … FIG. 15” below) with human c-Met receptor worked out at 67%. For the same molecule, in the assay with C-Met-Rluc, the “inhibition of HGF induced BRET signal, c-Met activation model” value (from here on “inhibition … c-Met activation model”) came to 59.9% and the “inhibition of HGF induced BRET signal, c-Met dimerization model” value (from here on “inhibition … c-Met dimerization model”) is 52.2%.

B3: [224G11] [TH7 Hz2] (antibody, human IgG1, V domains shown)
VH: B1 VH
VL: B1 VL with L4M, R72G
In the case of B3, in the assay with C-Met-Rluc, the “inhibition … c-Met activation model” value amounted to 41.8% and the “inhibition … c-Met dimerization model” value amounted to 35.8%.

B4: [224G11] [Hz2] (antibody, V domains shown)
VH: B1 VH
VL: B1 VL with L4M, R72G
As to B4, the “inhibition … FIG. 14A” value with human c-Met receptor was around 30%.

B5: [224G11] [TH7 Hz3] (antibody, human IgG1, V domains shown)
VH: B1 VH
VL: B1 VL with L4M, M37L, R72G
Consider B5, for which the “inhibition … FIG. 15” value in the assay with human c-Met receptor came out at 76%. For the same molecule, in the assay with C-Met-Rluc, the “inhibition … c-Met activation model” value came out at 57.9% and the “inhibition … c-Met dimerization model” value came to 49.4%.

B6: [224G11] [Hz3] (antibody, V domains shown)
VH: B1 VH
VL: B1 VL with L4M, M37L, R72G
Regarding B6, the “inhibition … FIG. 14A” value with human c-Met receptor was around 35%.

B7: murine 224G11 Mab (antibody, V domains shown)
VH: EVQLQQSGPELVKPGASVKISCKTSGYIFTAYTMHWVRQSLGESLDWIGGIKPNNGLANYNQKFKGKATLTVDKSSSTAYMDLRSLTSEDSAVYYCARSEITTEFDYWGQGTALTVSS
VL: DIVLTQSPASLAVSLGQRATISCRASESVDSYANSFMHWYQQKPGQPPKLLIYRASNLESGIPARFSGSGSRTDFTLTINPVEADDVATYYCQQSKEDPLTFGSGTKLEMKR
As for B7, in the assay with human c-Met receptor, the “inhibition … FIG. 14A” value turned out to be 66%; the “inhibition of HGF-induced proliferation of NCI-H441 cells ([3H]thymidine), FIG. 14B” value (“inhibition … FIG. 14B” for short) stood at 57%; the “inhibition … FIG. 15” value turned out to be 74%. Moreover, in the assay with C-Met-Rluc, the “inhibition … c-Met activation model” value is 56.4% and the “inhibition … c-Met dimerization model” value turned out to be 59.4%.

B8: [224G11] [MUP9H chim] (antibody, V domains shown)
VH: B7 VH
VL: B7 VL
B8: the “inhibition … FIG. 14B” value with human c-Met receptor was 78%. In the assay with C-Met-Rluc, the “BRET signal with Mab alone, c-Met activation model” value (“BRET signal with Mab alone” below) was found to be 7.6%; the “inhibition … c-Met activation model” value turned out to be 64.4%; the “inhibition … c-Met dimerization model” value was found to be 64.4%.

B9: [224G11]chim (antibody, human IgG1, V domains shown)
VH: B7 VH
VL: B7 VL
Take B9: in the assay with human c-Met receptor, the “inhibition … FIG. 14A” value is 19% and the “inhibition … FIG. 15” value came out at 33%. Also, in the assay with C-Met-Rluc, the “inhibition … c-Met activation model” value was 34.5% and the “inhibition … c-Met dimerization model” value was found to be 28.9%.

B10: [224G11] [MMCH chim] (antibody, V domains shown)
VH: B7 VH
VL: B7 VL
For the molecule B10, the “inhibition … FIG. 14B” value in the assay with human c-Met receptor came out at 84%. In the assay with C-Met-Rluc, the “BRET signal with Mab alone” value was -2%; the “inhibition … c-Met activation model” value is 53.2%; the “inhibition … c-Met dimerization model” value worked out at 52.5%.

B11: [224G11] [MH chim] (antibody, V domains shown)
VH: B7 VH
VL: B7 VL
With B11, the “inhibition … FIG. 14B” value with human c-Met receptor turned out to be 79%. In addition, in the assay with C-Met-Rluc, the “BRET signal with Mab alone” value stood at 5.1%; the “inhibition … c-Met activation model” value is 59.7%; the “inhibition … c-Met dimerization model” value is 61.8%.

B12: [224G11] [TH7 chim] (antibody, human IgG1)
heavy: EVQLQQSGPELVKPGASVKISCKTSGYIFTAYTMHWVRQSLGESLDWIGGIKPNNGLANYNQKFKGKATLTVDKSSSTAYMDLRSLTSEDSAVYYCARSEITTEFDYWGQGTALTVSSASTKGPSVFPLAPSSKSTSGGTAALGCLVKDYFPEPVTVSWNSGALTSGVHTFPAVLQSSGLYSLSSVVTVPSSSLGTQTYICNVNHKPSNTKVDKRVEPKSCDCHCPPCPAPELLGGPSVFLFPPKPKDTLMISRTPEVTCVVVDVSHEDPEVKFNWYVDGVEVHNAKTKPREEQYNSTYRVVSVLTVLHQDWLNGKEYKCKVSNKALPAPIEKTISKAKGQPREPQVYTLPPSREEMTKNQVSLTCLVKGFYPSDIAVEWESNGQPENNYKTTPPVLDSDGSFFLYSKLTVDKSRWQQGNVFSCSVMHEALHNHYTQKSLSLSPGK
light: DIVLTQSPASLAVSLGQRATISCRASESVDSYANSFMHWYQQKPGQPPKLLIYRASNLESGIPARFSGSGSRTDFTLTINPVEADDVATYYCQQSKEDPLTFGSGTKLEMKRTVAAPSVFIFPPSDEQLKSGTASVVCLLNNFYPREAKVQWKVDNALQSGNSQESVTEQDSKDSTYSLSSTLTLSKADYEKHKVYACEVTHQGLSSPVTKSFNRGEC
B12: in the assay with human c-Met receptor, the “inhibition … FIG. 14B” value was 93% and the “inhibition … FIG. 15” value was determined as 81%. In the assay with C-Met-Rluc, the “BRET signal with Mab alone” value was -6.9%; the “inhibition … c-Met activation model” value amounted to 73.8%; the “inhibition … c-Met dimerization model” value was 64.4%.

B13: [224G11] [IgG2 chim] (antibody)
heavy: EVQLQQSGPELVKPGASVKISCKTSGYIFTAYTMHWVRQSLGESLDWIGGIKPNNGLANYNQKFKGKATLTVDKSSSTAYMDLRSLTSEDSAVYYCARSEITTEFDYWGQGTALTVSSASTKGPSVFPLAPCSRSTSESTAALGCLVKDYFPEPVTVSWNSGALTSGVHTFPAVLQSSGLYSLSSVVTVPSSNFGTQTYTCNVDHKPSNTKVDKTVERKCCVECPPCPAPPVAGPSVFLFPPKPKDTLMISRTPEVTCVVVDVSHEDPEVQFNWYVDGVEVHNAKTKPREEQFNSTFRVVSVLTVVHQDWLNGKEYKCKVSNKGLPAPIEKTISKTKGQPREPQVYTLPPSREEMTKNQVSLTCLVKGFYPSDIAVEWESNGQPENNYKTTPPMLDSDGSFFLYSKLTVDKSRWQQGNVFSCSVMHEALHNHYTQKSLSLSPG
light: B12 light
B13: the “inhibition … c-Met dimerization model” value in the assay with C-Met-Rluc stood at 62.4%.
